The data set relates to T1, Nc1ccn([C@@H]2S[C@H](CO)[C@@H](O)[C@@H]2O)c(=O)n1.
T1 construct: endogenous in cells; host or cells: Molt-4 cells (enzyme purified from the cells)
Nature of the data set: purified protein, by the assay type. It counts as biochemical. To be noted: other: dCyd kinase activity from Molt-4 cells.

The values below come from patent US20060287320A1, “Preparation of thioarabinofuranosyl compounds and use thereof” (Southern Research Institute, priority 1998, published 2006).

The Km is the substrate concentration at which the rate is half of its maximum.

Sequence of dCyd Kinase Activity Isolated from Molt-4 Cells (Homo sapiens) (chain, as listed by the source): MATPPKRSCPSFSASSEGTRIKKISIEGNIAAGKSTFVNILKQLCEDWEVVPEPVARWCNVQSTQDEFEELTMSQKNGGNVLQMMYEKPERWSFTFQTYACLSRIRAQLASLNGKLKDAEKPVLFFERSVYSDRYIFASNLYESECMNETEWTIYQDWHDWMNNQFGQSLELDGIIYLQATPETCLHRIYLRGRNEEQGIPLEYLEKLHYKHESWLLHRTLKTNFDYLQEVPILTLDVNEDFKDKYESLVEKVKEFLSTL
Experimental: Each assay was done in duplicate and the kinetic constants were determined from linear double-reciprocal plots of 1/velocity versus 1/concentration of the substrate. The best line was determined by linear regression from at least 5 datum points, and the Km and Vmax were determined from the x and y intercepts.

Turning to “dCyd Kinase Activity Isolated from Molt-4 Cells (Homo sapiens)”, the Km is 93 µM.
